Data: article PMC8341984

Molecular target: CFP-cA1-cA1, two chicken ASIC1 subunits concatenated in a dimer with an N terminal CFP (chicken) (UniProt Q1XA76)
Assay: FRET or BRET; FLIM-FRET: lifetime of the CFP donor at the plasma membrane of single live HEK293T ASIC1 KO cells co-transfected at varying cDNA ratios; multi-photon excitation at 860 nm, single exponential fits

FRET efficiency (1:15 ratio): 15%
Substance: C4 YFP, chicken ASIC1 with YFP at the C4 position of the C tail (from UniProt Q1XA76 1-527) (natural protein)
